Assay results published in the supplement of paper PMC9170038.

Test system: MS2 coat protein
Experiment: apparent KD of MS2 coat protein; designed switch direction (-1 OFF switch, 1 ON switch): -1; higher = weaker reporter binding
How it was run: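 Designed RNA switches with common flanks were transcribed on Illumina chips by stalled E. coli RNA polymerase and titrated with SNAP-549-labelled MS2 coat protein, from 0.7 or 1.5 nM doubling to 3 µM, in Tris-HCl pH 7.5 buffer with KCl, MgCl2, BSA, DTT, tRNA and Tween-20. Steps lasted 0.8–1.5 h (lowest) to 10–20 min (highest). Titrations ran without input, with 200 uM small-molecule ligand, or with an oligonucleotide input. Normalised cluster fluorescence was curve-fitted, and apparent KD is the per-design median over clusters.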

[1] = Eterna round: R95, input ligand: FMN 200 uM
[2] = Eterna round: R95, input ligand: microRNA oligo, concentration not stated
[3] = Eterna round: R95, input ligand: none
[4] = input ligand: microRNA oligo, concentration not stated

Sequence	apparent KD of MS2 coat protein (input ligand: FMN 200 uM) [nM]	apparent KD of MS2 coat protein (input ligand: none) [nM]	also measured
UAUUAAACAAGCGGAUCCCACAUGAGGAUCACCCAUGUGCUCGUCUUAUAAGGUACUGUGACGAAAGUCACGGUACC [Sensor 3, v1 - 91 v13] (Eterna round: R97, puzzle: Sensor, turn-off variant 1)	25	28.9	–
UAUUAACAAGCUAGAUCCCACAUGAGGAUCACCCAUGUGCUCGUCUUAUAAGGUACUGUGACGAAAGUCACGGUACC [Sensor 3, v1 - 78] (puzzle: Sensor v3, turn-off variant 1)	–	–	apparent KD of MS2 coat protein [1]: 37.8 nM; apparent KD of MS2 coat protein [2]: 188 nM; apparent KD of MS2 coat protein [3]: 32.3 nM
UAUUAACAAGCUAGAUCCUACAUGAGGAUCACCCAUGUGCUCGUCUUAUAAGGUACUGUGACGAAAGUCACGGUACC [Sensor 3, v1 - 76] (puzzle: Sensor v3, turn-off variant 1)	–	–	apparent KD of MS2 coat protein [1]: 265 nM; apparent KD of MS2 coat protein [2]: 42.4 nM; apparent KD of MS2 coat protein [3]: 243 nM
UAUUAAGCAAGCAGAUCCCACAUGAGGAUCACCCAUGUGCUCGUCUUAUAAGGUACUGUGACAAAAGUCACGGUACC [Mat - Sensor, turn-off var - Eli Mod - D74] (Eterna round: R97, puzzle: Sensor, turn-off variant 1)	121	135	–
UAUUAAUGCAAGGAUAUGCUUUUAAUUUUUUUUGCAGAAGGUGCAACAUGAGGAUCACCCAUGUUUGAGGGUAU [JR_E6_Sub030] (puzzle: Exclusion 6)	–	–	apparent KD of MS2 coat protein [1]: 68.4 nM; apparent KD of MS2 coat protein [2]: 59 nM; apparent KD of MS2 coat protein [3]: 53.8 nM
UAUUAGCAAGCAAGAUCCCACAUGAGGAUCACCCAUGUGCUCGUCGCAUCCAGAAUUACUGGGUGCGCUCGUCUUAU [Winner reversed engineered 16] (Eterna round: R97, puzzle: Sensor, turn-off variant 1)	168	169	–
UAUUAGCAAGCGAGAUCCCACAUGAGGAUCACCCAUGUAAAGCAUCCAGAAUUACUGGGUGCAAAAGCUCGUCUUAU [Winner reversed engineered 6] (Eterna round: R97, puzzle: Sensor, turn-off variant 1)	29.4	31.7	–
UAUUAGCAAGCGAGAUCUCACAUGAGGAUCACCCAUGUGCUCGUCUUAUAAGGUACUGUGACGAUAGUCACGGUACC [Mat - Sensor, turn-off var - Eli Mod - D38] (Eterna round: R97, puzzle: Sensor, turn-off variant 1)	15.3	14.6	–
UAUUAGCAAGUAAGAUCCCACAUGAGGAUCACCCAUGUGCUCGUCUUAUAAGGUACUGUGACGAUAGUCACGGUACC [Mat - Sensor, turn-off var - Eli Mod - D44] (Eterna round: R97, puzzle: Sensor, turn-off variant 1)	18.3	17.8	–
UAUUAGCAAGUAAGGUCCCACAUGAGGAUCACCCAUGUGCUCGUCACCUCAGGUACGGAGCGGAAACUCCCGAUAUG [Sensor-V1 #91] (Eterna round: R97, puzzle: Sensor, turn-off variant 1)	81.4	83.1	–
UAUUAGUAAGGAUAUGAGACGUAGGACGCAAGUCCUACGUCUCAGAAGGUACAUGAGGAUCACCCAUGUCUAUU [Mod of Fisker 10 - Jieux - Exclusion 4] (Eterna round: R97, puzzle: Exclusion 4)	21.2	22.2	–
UAUUAUCAAGCAAGAUCCCACAUGAGGAUCACCCAUGUGCUCGUCUUAUUUCUGGCCUUAUUGGUCUCUCGUCUAAU [JR_STOV1_v2_Sub095] (Eterna round: R97, puzzle: Sensor, turn-off variant 1)	25.8	26.7	–
UAUUCACAAGCGAGAUCCCACAUGAGGAUCACCCAUGUGCUCGUCUUAUAAGGUACUGUGACGAUAGUCACGGUACC [Mat - Sensor, turn-off var - Eli Mod - D86] (Eterna round: R97, puzzle: Sensor, turn-off variant 1)	17.4	15	–
UAUUCGCAAGUGAGAUCCCACAUGAGGAUCACCCAUGUGCUCGUCUUAUAAGGUACUGUGACGAAAGUCACGGUACC [Sensor 3, v1 - 91 v23] (Eterna round: R97, puzzle: Sensor, turn-off variant 1)	32.4	36.1	–
UAUUUAAGAGGAUAUACAUGAGGAUCACCCAUGUAUAAUAAAAUACAUGAUUUUUUAUGUAGAAGGCUUGGGUA [-19.1, -18.3 kcal, 36% A] (Eterna round: R97, puzzle: Exclusion 3)	72	21.1	–
UAUUUGCAAGCGAGAUCCCACAUGAGGAUCACCCAUGUUCUUGGAAAGUACAGAAUUACUGUACAAGCUCGUCUUCU [mod-Eli/newD-last] (Eterna round: R97, puzzle: Sensor, turn-off variant 1)	18.9	20.4	–
UCAAGUAUGUAGGAUAUCGAUGUCCUUGGACAUCGAGAAGGACGUACAUGAGGAUCACCCAUGUAACUUGCAUG [Exclusion 6 - B - 10:e] (Eterna round: R96, puzzle: Exclusion 6)	–	–	apparent KD of MS2 coat protein [4]: 131 nM

Sequence	apparent KD of MS2 coat protein (input ligand: FMN 200 uM) [nM]	apparent KD of MS2 coat protein (input ligand: none) [nM]	also measured
UCAAGUAUGUAGGAUAUCGAUGUCCUUGGACAUCGAGAAGGACGUACAUGAGGAUCACCCAUGUAACUUGCAUG [Exclusion 6 - B - 10:e] (puzzle: Exclusion 6)	–	–	apparent KD of MS2 coat protein [1]: 103 nM; apparent KD of MS2 coat protein [2]: 138 nM; apparent KD of MS2 coat protein [3]: 94.5 nM
UCACAAGCUGUGGGUGGUGACAUGAGGAUCACCCAUGUUUUGCUCGUCUUGUGCCGGGCCCGGCGCCCGGGCCCGGC [-42.1, -69.5, A 12%] (Eterna round: R97, puzzle: Sensor, turn-off variant 1)	929	–	–
UCACAGGCUGUGGGUGGUGACAUGAGGAUCACCCAUGUUUUGCUCGUCUUGUGCCGGGCCCGGCGCCCGGGCCCGGC [-41.8, -69.2, A 10%] (Eterna round: R97, puzzle: Sensor, turn-off variant 1)	575	1210	–
UCACCUGGGUCAGGAUAUAAAGGGUCAGGAAGUUUAGAAGGGACUUAGGACAUGAGGAUCACCCAUGUUGAGAACUCGUUUGUA [Eternabot solution 25] (Eterna round: R96, puzzle: Exclusion NG 1)	46.2	36.7	apparent KD of MS2 coat protein [4]: 27.5 nM
UCAGGCAAGUGUACAGCCAACAUGAGGAUCACCCAUGUCGGGAGAAGGACUGUUACACACCGCUCGUCUUACUUGCC [Eternabot (Original) Solution 35] (Eterna round: R97, puzzle: Sensor, turn-off variant 1)	18.3	23.1	–
UCAGUUUUGCGAGGAUAUCGACCAUUCCUCUUUACAUGAGGAUCACCCAUGUGCUUAUCCUACAACGAGAAGGCGCUCAUACUC [JR_ExcNG2_Sub065] (Eterna round: R96, puzzle: Exclusion NG 2)	543	574	apparent KD of MS2 coat protein [4]: 580 nM
UCAUAACAUGAGGAUCACCCAUGUCAGGAUAUGAUACUAUGUACUUCGGUACAUAGUAUCAGAAGGGACAUGCU [Brourd's Ex1-3: 12 (nt 72 G)] (puzzle: Exclusion 1)	–	–	apparent KD of MS2 coat protein [2]: 135 nM
UCAUAUAACGAGGAUAUGCGGGCCGUUUUCCCAGCAGAAGGCGUUACAUGAGGAUCACCCAUGUACCCGGGUAA [EX6 A.29] (Eterna round: R97, puzzle: Exclusion 6)	18.1	515	–
UCAUGUCCAGAGGAUAUGUAGAUCGAGAGAUCAACAGAAGGCUGGACAUGAGGAUCACCCAUGUGCGCCUUCAA [jl-ex3-4.29 ViennaUCT mod] (Eterna round: R97, puzzle: Exclusion 6)	70.6	188	–
UCAUGUCCAGAGGAUAUGUAGCGGGAGACCGCAACAGAAGGCUGGACAUGAGGAUCACCCAUGUGCGCCUUCAA [jl-ex3-4.28 ViennaUCT mod] (Eterna round: R97, puzzle: Exclusion 6)	43	352	–
UCAUGUCCAGAGGAUAUGUAGCGGGAGACCGCAACAGAAGGCUGGACAUGAGGAUCACCCAUGUGCGCCUUCGA [jl-ex3-4.27 ViennaUCT mod] (Eterna round: R97, puzzle: Exclusion 6)	35.9	113	–
UCCCACCGAGGAUAUGACCAUCAGAACAUGAGGAUCACCCAUGUAUUUCUAUGUUCAGAGUCAGAAGGCGGUUUAU [Eternabot (L2) Solution 20] (Eterna round: R97, puzzle: Exclusion 5)	190	72.4	–
UCCCGAUACUAGGAUAUGAGUUCACAGGAACGAUCAGAAGGAGUUACAUGAGGAUCACCCAUGUGGGUGUAUUG [Eternabot (L1) Solution 37] (Eterna round: R97, puzzle: Exclusion 6)	120	237	–
UCCCGUCUAUGGAGAUUUUACAUGAGGAUCACCCAUGUUGGGACCGCUCUUUGCUUGUCUUCUCCUACUUCGUGUGU [mod-Gracier #4] (Eterna round: R97, puzzle: Sensor, turn-off variant 1)	82.7	87.2	–
UCCUAACAUGAGGAUCACCCAUGUCAGGAUAUGAUACUAUGUACUUCGGUACAUAGUAUCAGAAGGGACAUCCU [Ex1-3: 9] (puzzle: Exclusion 1)	–	–	apparent KD of MS2 coat protein [2]: 14.7 nM
UCCUGUUAUGUUAGGAUAUCUGGUUCGACUCGAACAGAGAAGGAACAUGAGGAUCACCCAUGUCCCGGUGAUAA [Eternabot (L2) Solution 19] (Eterna round: R97, puzzle: Brourd's mod of Exclusion 4)	85.6	33.1	–
